Measurements as given in US8685890 (Bicycle, dated 2014).
“And” between values parts separate entries of the source, which are not always exact repeats. Equal entries are not always repeated. Starred links: 1 amine or outer side, 2 acyl side, 3 side chain; linkers in the order of their positions; H or OH if unused. Positions of bridges follow the written chain, without caps; N, C: chain ends. No end group written: not given here. TBMB = c1c(C[*:1])cc(C[*:3])cc1C[*:2]

Legend:
[1] = target: T1, MDM2 (res 2-125) (UniProt Q00987 2-125); assay: fluorescence anisotropy titration, intrinsic Trp fluorescence, PBS 5 mM DTT, 23 C
T1 construct: range 2-125

[2] = target: T1, MDM2 (res 2-125); assay: fluorescence anisotropy titration, MDM2 (res 2-125) titrated into the peptide, quadratic 1:1 fit with linear drift term; unit from the axis uM Mdm2
[3] = target: T1, MDM2 (res 2-125); assay: fluorescence anisotropy titration, λex=295 nm
[4] = target: kallikrein (UniProt P03952 20-638, limits assumed); assay: cell-based or functional assay
[5] = target: T1, MDM2 (res 2-125); assay: fluorescence anisotropy titration, MDM2 (res 2-125) titrated into the peptide, quadratic 1:1 fit with linear drift term; unit from the axis MDM2, uM
[6] = target: T2, Mdm2 (construct limits not stated) (UniProt Q00987 2-125, limits assumed); assay: fluorescence anisotropy (FIG. 3); PK15L1-PEP48L1 bicycle (FIG. 3)
[7] = target: T1, MDM2 (res 2-125); assay: fluorescence anisotropy (Example 1, retold as a range); upper end of range retold from Example 1
[8] = target: T1, MDM2 (res 2-125); assay: fluorescence anisotropy titration, λex=280 nm; λex=280 nm
[9] = target: T1, MDM2 (res 2-125); assay: as described in Example 1 (method not retold)
[10] = target: T1, MDM2 (res 2-125); assay: fluorescence anisotropy (Example 1, retold as a range); lower end of range retold from Example 1
[11] = target: T3, bovine serum albumin (bovine, UniProt P02769 25-607); assay: fluorescence anisotropy titration of BSA into peptide
T3 construct: also called BSA

[12] = target: T3, bovine serum albumin; assay: fluorescence anisotropy, comparison of Kd
[13] = target: T3, bovine serum albumin; assay: fluorescence anisotropy titration of BSA into 0.4 µM peptide
[14] = target: T3, bovine serum albumin; assay: fluorescence anisotropy titration of BSA into 200 nM peptide
[15] = target: T3, bovine serum albumin; assay: fluorescence anisotropy titration of BSA into 500 nM peptide
[16] = target: T2, Mdm2 (construct limits not stated at …); assay: fluorescence anisotropy titration of 18.8 µM Mdm2 into 500 nM peptide; data could not be fitted
[17] = target: T2, Mdm2 (construct limits not stated at …); assay: method not given; affinity-matured Pep48T, estimated

T3 sequence (P02769 25-607 limits assumed): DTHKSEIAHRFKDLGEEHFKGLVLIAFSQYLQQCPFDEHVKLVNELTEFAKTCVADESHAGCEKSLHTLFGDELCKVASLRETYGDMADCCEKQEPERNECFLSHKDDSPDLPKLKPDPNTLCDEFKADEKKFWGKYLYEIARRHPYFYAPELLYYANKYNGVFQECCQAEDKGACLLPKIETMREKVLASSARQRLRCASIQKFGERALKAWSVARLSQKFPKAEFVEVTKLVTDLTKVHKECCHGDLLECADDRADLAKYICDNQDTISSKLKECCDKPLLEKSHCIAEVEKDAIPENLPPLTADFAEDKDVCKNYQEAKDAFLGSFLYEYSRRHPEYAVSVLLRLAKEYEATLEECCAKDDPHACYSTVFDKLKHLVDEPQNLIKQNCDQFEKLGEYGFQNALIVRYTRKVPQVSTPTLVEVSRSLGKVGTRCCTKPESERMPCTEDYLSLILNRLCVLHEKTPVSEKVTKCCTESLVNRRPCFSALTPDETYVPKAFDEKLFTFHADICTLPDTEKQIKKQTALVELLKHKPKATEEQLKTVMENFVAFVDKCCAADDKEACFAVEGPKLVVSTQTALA
Chain of kallikrein (P03952 20-638 limits assumed): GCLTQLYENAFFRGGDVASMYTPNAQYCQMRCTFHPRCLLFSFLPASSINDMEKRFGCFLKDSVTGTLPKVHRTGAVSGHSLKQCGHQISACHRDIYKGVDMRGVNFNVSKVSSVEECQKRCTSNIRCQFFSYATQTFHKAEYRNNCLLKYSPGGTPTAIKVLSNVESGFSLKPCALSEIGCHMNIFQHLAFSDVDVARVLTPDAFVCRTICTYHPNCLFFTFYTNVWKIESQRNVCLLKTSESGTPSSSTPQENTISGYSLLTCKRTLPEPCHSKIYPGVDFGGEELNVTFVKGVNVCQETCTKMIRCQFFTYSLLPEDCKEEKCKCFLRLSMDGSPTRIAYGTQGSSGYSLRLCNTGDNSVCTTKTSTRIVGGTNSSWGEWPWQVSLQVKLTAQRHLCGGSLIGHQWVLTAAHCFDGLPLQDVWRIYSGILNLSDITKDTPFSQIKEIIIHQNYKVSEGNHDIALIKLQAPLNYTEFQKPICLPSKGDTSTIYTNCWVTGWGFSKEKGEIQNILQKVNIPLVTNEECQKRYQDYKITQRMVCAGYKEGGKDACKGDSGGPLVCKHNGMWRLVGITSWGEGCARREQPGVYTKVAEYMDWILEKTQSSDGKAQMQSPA
T1 sequence (Q00987 2-125 limits assumed): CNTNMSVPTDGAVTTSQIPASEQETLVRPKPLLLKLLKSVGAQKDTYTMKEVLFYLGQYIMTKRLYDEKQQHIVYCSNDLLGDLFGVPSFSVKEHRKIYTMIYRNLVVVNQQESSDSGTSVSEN
T2 sequence (Q00987 2-125 limits assumed): as above

B1: PEP10 bicyclic peptide (synthetic peptide of phage clone 10 conjugated to TBMB) (peptide)
peptide: H-SCELWNPKCRLSPFECKG-OH
modifications: linker 2-9-16 via TBMB
notes: measured in PBS with 5 mM DTT; also called peptide 10
[1]
  Kd: 250 to 750 nM
[2]
  Kd: 268 nM
[3]
  Kd: 267 nM

B2: CG4L1-PK15L1-PK15L2 tricyclic (peptide)
peptide: ALCIFDLGFCSDRFRNCPADE
HELM: PEPTIDE1{A.L.C.I.F.D.L.G.F.C.S.D.R.F.R.N.C.P.A.D.E}|CHEM1{[c1c(C[*:1])cc(C[*:3])cc1C[*:2]]}$PEPTIDE1,CHEM1,3:R3-1:R1|PEPTIDE1,CHEM1,10:R3-1:R2|PEPTIDE1,CHEM1,17:R3-1:R3|PEPTIDE1,PEPTIDE1,1:R1-21:R2$$$V2.0
SMILES: CC[C@H](C)[C@@H]1NC(=O)[C@@H]2CSCc3cc4cc(c3)CSC[C@H](NC(=O)[C@H](CC(N)=O)NC(=O)[C@H](CCCNC(=N)N)NC(=O)[C@H](Cc3ccccc3)NC(=O)[C@H](CCCNC(=N)N)NC(=O)[C@H](CC(=O)O)NC(=O)[C@H](CO)NC(=O)[C@H](CSC4)NC(=O)[C@H](Cc3ccccc3)NC(=O)CNC(=O)[C@H](CC(C)C)NC(=O)[C@H](CC(=O)O)NC(=O)[C@H](Cc3ccccc3)NC1=O)C(=O)N1CCC[C@H]1C(=O)N[C@@H](C)C(=O)N[C@@H](CC(=O)O)C(=O)N[C@@H](CCC(=O)O)C(=O)N[C@@H](C)C(=O)N[C@@H](CC(C)C)C(=O)N2
[4]
  IC50 for inhibition of kallikrein activity: 15 µM

B3: PK15L1-CG4L1 bicyclic (peptide)
peptide: ACSDRFRNCIFDLGFCG
HELM: PEPTIDE1{A.C.S.D.R.F.R.N.C.I.F.D.L.G.F.C.G}|CHEM1{[c1c(C[*:1])cc(C[*:3])cc1C[*:2]]}$PEPTIDE1,CHEM1,2:R3-1:R1|PEPTIDE1,CHEM1,9:R3-1:R2|PEPTIDE1,CHEM1,16:R3-1:R3$$$V2.0
SMILES: CC[C@H](C)[C@@H]1NC(=O)[C@@H]2CSCc3cc(cc(c3)CSC[C@@H](C(=O)NCC(=O)O)NC(=O)[C@H](Cc3ccccc3)NC(=O)CNC(=O)[C@H](CC(C)C)NC(=O)[C@H](CC(=O)O)NC(=O)[C@H](Cc3ccccc3)NC1=O)CSC[C@H](NC(=O)[C@H](C)N)C(=O)N[C@@H](CO)C(=O)N[C@@H](CC(=O)O)C(=O)N[C@@H](CCCNC(=N)N)C(=O)N[C@@H](Cc1ccccc1)C(=O)N[C@@H](CCCNC(=N)N)C(=O)N[C@@H](CC(N)=O)C(=O)N2
[4]
  IC50 for inhibition of kallikrein activity: 0.2 µM

## H-ALCIFDLGFCSDRFRNCPADE-OH (linker 3-10-17 via TBMB) [X-CG4L1-PK15L1-Y bicyclic]
[4]
  IC50 for inhibition of kallikrein activity: 15 µM

B4: PK15L1-PEP48L1 bicyclic (peptide)
peptide: ACSDRFRNCVRFGWTCG
modifications: linker 2-9-16 via TBMB
notes: also called PK15L1-PEP48L1 bicyclic peptide; dual specific peptide comprising loops from PEP48 and PK15
[5]
  Kd: 1560 nM
[4]
  IC50 for inhibition of kallikrein activity: 11 µM
[6]
  Kd: 1550 nM

B5: PEP48 bicyclic peptide (synthetic peptide of phage clone 48 conjugated to TBMB) (peptide)
peptide: H-SCVRFGWTCDNSWHGCKG-OH
modifications: linker 2-9-16 via TBMB
notes: measured in PBS with 5 mM DTT; also called peptide 48; PEP48L1-PEP48L2 bicyclic peptide
[7]
  Kd: ≤ 800 nM
[8]
  Kd: 760 nM
[1]
  Kd: 250 to 750 nM
[2]
  Kd: 760 nM and 568 nM
[3]
  Kd: 567 nM
[9]
  Kd: ~660 nM
[10]
  Kd: ≥ 500 nM

B6: Fmoc-FGSGD-NH2 (peptide)
peptide: FGSGD
HELM: PEPTIDE1{[O=C(OCC1c2ccccc2-c2ccccc21)[*:2]].F.G.S.G.D.[am]}$$$$V2.0
SMILES: NC(=O)[C@H](CC(=O)O)NC(=O)CNC(=O)[C@H](CO)NC(=O)CNC(=O)[C@H](Cc1ccccc1)NC(=O)OCC1c2ccccc2-c2ccccc21
[11]
  Kd: 160 nM
[12]
  fold tighter than the glycine variant (Fmoc-GGSGD-NH2): 8 fold

B7: Fmoc-WGSGD-NH2 (peptide)
peptide: WGSGD
HELM: PEPTIDE1{[O=C(OCC1c2ccccc2-c2ccccc21)[*:2]].W.G.S.G.D.[am]}$$$$V2.0
SMILES: NC(=O)[C@H](CC(=O)O)NC(=O)CNC(=O)[C@H](CO)NC(=O)CNC(=O)[C@H](Cc1c[nH]c2ccccc12)NC(=O)OCC1c2ccccc2-c2ccccc21
notes: also called Fmoc-Trp-GSGD
[13]
  Kd: ~60 nM
[12]
  fold tighter than Fmoc-FGSGD-NH2: 3 fold

B8: Fmoc-FGGGD-NH2 (peptide)
peptide: FGGGD
HELM: PEPTIDE1{[O=C(OCC1c2ccccc2-c2ccccc21)[*:2]].F.G.G.G.D.[am]}$$$$V2.0
SMILES: NC(=O)[C@H](CC(=O)O)NC(=O)CNC(=O)CNC(=O)CNC(=O)[C@H](Cc1ccccc1)NC(=O)OCC1c2ccccc2-c2ccccc21
[11]
  Kd: 200 nM

B9: Fmoc-GGSGD-NH2 (peptide)
peptide: GGSGD
HELM: PEPTIDE1{[O=C(OCC1c2ccccc2-c2ccccc21)[*:2]].G.G.S.G.D.[am]}$$$$V2.0
SMILES: NC(=O)[C@H](CC(=O)O)NC(=O)CNC(=O)[C@H](CO)NC(=O)CNC(=O)CNC(=O)OCC1c2ccccc2-c2ccccc21
notes: also called the glycine variant
[14]
  Kd: 1300 nM

B10: bicyclic Fmoc-WGGGA-PEP48L1-PK15L1 (peptide)
peptide: WGGGACVRFGWTCSDRFRNCG
HELM: PEPTIDE1{[O=C(OCC1c2ccccc2-c2ccccc21)[*:2]].W.G.G.G.A.C.V.R.F.G.W.T.C.S.D.R.F.R.N.C.G.[am]}|CHEM1{[c1c(C[*:1])cc(C[*:3])cc1C[*:2]]}$PEPTIDE1,CHEM1,7:R3-1:R1|PEPTIDE1,CHEM1,14:R3-1:R2|PEPTIDE1,CHEM1,21:R3-1:R3$$$V2.0
SMILES: CC(C)[C@@H]1NC(=O)[C@@H](NC(=O)[C@H](C)NC(=O)CNC(=O)CNC(=O)CNC(=O)[C@H](Cc2c[nH]c3ccccc23)NC(=O)OCC2c3ccccc3-c3ccccc32)CSCc2cc3cc(c2)CSC[C@H](NC(=O)[C@H]([C@@H](C)O)NC(=O)[C@H](Cc2c[nH]c4ccccc24)NC(=O)CNC(=O)[C@H](Cc2ccccc2)NC(=O)[C@H](CCCNC(=N)N)NC1=O)C(=O)N[C@@H](CO)C(=O)N[C@@H](CC(=O)O)C(=O)N[C@@H](CCCNC(=N)N)C(=O)N[C@@H](Cc1ccccc1)C(=O)N[C@@H](CCCNC(=N)N)C(=O)N[C@@H](CC(N)=O)C(=O)N[C@H](C(=O)NCC(N)=O)CSC3
notes: also called Fmoc PEP48L1-PK15L1 bicyclic; FmocPEP48L1-PK15L1
[15]
  Kd: 62 nM
[4]
  IC50 for inhibition of kallikrein activity: 17 µM
[16]
  Kd: < 1000 nM

## ACSDRFRNCPADEALCG (linker 2-9-16 via TBMB) [PK15L1-PK15L2 bicyclic]
[4]
  IC50 for inhibition of kallikrein activity: 0.013 µM

## SGCVRFGWTCPTVMCGG (linker 3-10-15 via TBMB; not fully specified (N-terminus, C-terminus)) [Pep48T (affinity-matured Pep48 derivative, TBMB conjugate)]
[17]
  Kd: ~100 nM
